Molecular target: nucleosome with Cy5-labeled human histone octamer (H2A(K119C), H2B, H3(C110A), H4) reconstituted on lambda DNA (human) (UniProt P06899)
Test: single-molecule fluorescence colocalisation

Question: With “Cy3-labeled human linker histone H1.0(S22C) (from UniProt P07305 1-194) (natural protein)” as the substance, how does the nucleosome co-localization dwell time τ slow (with 2 nM Nap1) read?
Answer: The nucleosome co-localization dwell time τ slow (with 2 nM Nap1) was 1.1 s.
